According to article doi:10.1101/2020.04.15.042515 (bioRxiv, 2020):

Molecular target: T1, Smith-Magenis syndrome chromosome region, candidate 8 (SMCR8), wild type (human, UniProt Q8TEV9 1-937)
T1 sequence: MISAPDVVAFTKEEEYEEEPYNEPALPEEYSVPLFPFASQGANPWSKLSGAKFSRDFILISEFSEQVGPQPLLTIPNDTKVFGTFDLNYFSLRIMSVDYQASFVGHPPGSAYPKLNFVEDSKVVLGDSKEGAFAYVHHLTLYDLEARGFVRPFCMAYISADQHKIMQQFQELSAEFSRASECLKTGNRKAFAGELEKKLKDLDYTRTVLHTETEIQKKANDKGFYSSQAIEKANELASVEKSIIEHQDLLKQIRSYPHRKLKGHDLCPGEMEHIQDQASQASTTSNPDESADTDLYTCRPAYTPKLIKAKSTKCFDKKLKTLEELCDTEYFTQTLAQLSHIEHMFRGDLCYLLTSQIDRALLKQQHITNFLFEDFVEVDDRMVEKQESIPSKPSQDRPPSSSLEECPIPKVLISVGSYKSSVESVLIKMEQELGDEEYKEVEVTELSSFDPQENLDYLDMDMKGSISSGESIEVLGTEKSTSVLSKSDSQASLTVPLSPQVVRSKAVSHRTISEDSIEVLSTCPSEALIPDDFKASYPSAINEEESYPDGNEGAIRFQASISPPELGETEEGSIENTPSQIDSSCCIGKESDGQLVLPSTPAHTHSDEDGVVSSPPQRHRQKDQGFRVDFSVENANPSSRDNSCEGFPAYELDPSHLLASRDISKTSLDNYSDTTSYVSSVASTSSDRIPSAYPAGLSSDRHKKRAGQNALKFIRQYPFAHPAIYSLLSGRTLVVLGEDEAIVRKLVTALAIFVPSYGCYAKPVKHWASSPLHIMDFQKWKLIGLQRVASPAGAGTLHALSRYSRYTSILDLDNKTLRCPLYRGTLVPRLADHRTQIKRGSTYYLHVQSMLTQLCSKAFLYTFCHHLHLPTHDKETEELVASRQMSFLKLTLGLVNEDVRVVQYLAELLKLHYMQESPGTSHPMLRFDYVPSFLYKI
Assay: cryo-EM structure

Row | Binder | binding result
1 | C9orf72, wild type, GST tag removed by TEV (in purified SCARF and L-SCARF) (natural protein) MSTLCPPPSPAVAKTEIALSGKSPLLAATFAYWDNILGPRVRHIWAPKTEQVLLSDGEITFLANHTLNGEILRNAESGAIDVKFFVLSEKGVIIVSLIFDGNWNGDRSTYGLSIILPQTELSFYLPLHRVCVDRLTHIIRKGRIWMHKERQENVQKIILEGTERMEDQGQSIIPMLTGEVIPVMELLSSMKSHSVPEEIDIADTVLNDDDIGDSCHEGFLLNAISSHLQTCGCSVVVGSSAEKVNKIVRTLCLFLTPAERKCSRLCEAESSFKYESGLFVQGLLKDSTGSFVLPFRQVMYAPYPTTHIDVDVNTVKQMPPCHEHIYNQRRYMRSELTAFWRATSEEDMAQDTIIYTDESFTPDLNIFQDVLHRDTLVKAFLDQVFQLKPGLSLRSTFLAQFLLVLHRKALTLIKYIEDDTQKGKKPFKSLRNLKIDLDLTAEGDLNIIMALAEKIKPGLHSFIFGRPFYTSVQERDVLMTF | binds
2 | WD repeat-containing protein 41 (WDR41), wild type, without a tag (natural protein) MLRWLIGGGREPQGLAEKSPLQTIGEEQTQNPYTELLVLKAHHDIVRFLVQLDDYRFASAGDDGIVVVWNAQTGEKLLELNGHTQKITAIITFPSLESCEEKNQLILTASADRTVIVWDGDTTRQVQRISCFQSTVKCLTVLQRLDVWLSGGNDLCVWNRKLDLLCKTSHLSDTGISALVEIPKNCVVAAVGKELIIFRLVAPTEGSLEWDILEVKRLLDHQDNILSLINVNDLSFVTGSHVGELIIWDALDWTMQAYERNFWDPSPQLDTQQEIKLCQKSNDISIHHFTCDEENVFAAVGRGLYVYSLQMKRVIACQKTAHDSNVLHVARLPNRQLISCSEDGSVRIWELREKQQLAAEPVPTGFFNMWGFGRVSKQASQPVKKQQENATSCSLELIGDLIGHSSSVEMFLYFEDHGLVTCSADHLIILWKNGERESGLRSLRLFQKLEENGDLYLAV | binds
